From patent publication US7556938B1, “Nucleic acids encoding potassium channel interactors” (Millennium Pharmaceuticals, Inc., priority 1998, dated 2009)

T1: rKv4.3N (Rattus norvegicus, UniProt Q62897)
T1 construct: expressed in transfected cells; host or cells: yeast HF7c (bait), mated with Y187 (fish)
T1 sequence (Q62897 1-180): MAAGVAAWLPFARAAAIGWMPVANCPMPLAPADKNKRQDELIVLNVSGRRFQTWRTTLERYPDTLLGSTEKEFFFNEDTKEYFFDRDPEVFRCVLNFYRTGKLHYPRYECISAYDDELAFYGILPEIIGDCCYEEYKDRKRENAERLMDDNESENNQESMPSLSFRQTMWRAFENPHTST


Experiments:
rKv4.3N = molecular target: T1, rKv4.3N; assay: Yeast two-hybrid binding and specificity test, Kv4.3 N-terminal bait
Procedure: The first 180 amino acids of rKv4.3 (described in Serdio P. et al. (1996) J. Neurophys 75:2174-2179) were amplified by PCR and cloned in frame into pGBT9 resulting in plasmid pFWA2, (hereinafter “bait”). This bait was transformed into the two-hybrid screening strain HF7c and tested for expression and self-activation. The bait was validated for expression by Western blotting.
Two-hybrid screens were carried out essentially as described in Bartel, P. et al. (1993) “Using the Two-Hybrid System to Detect Polypeptide-Polypeptide Interactions” in Cellular Interactions in Development: A Practical Approach, Hartley, D. A. ed. Oxford University Press, Oxford, pp. 153-179, with a bait-library pair of rkv4.3 bait-rat mid brain library. A filter disk beta-galactosidase (beta-gal) assay was performed essentially as previously described (Brill et al. (1994) Mol. Biol. Cell. 5:297-312). Clones that were positive for both reporter gene activity (His and beta-galactosidase) were scored and fish, plasmids were isolated from yeast, transformed into E. coli strain KC8, DNA plasmids were purified and the resulting plasmids were sequenced by conventional methods (Sanger F. et al. (1977) PNAS, 74: 5463-67).
Positive interactor clones were subjected to a binding specificity test where they were exposed to a panel of related and unrelated baits by a mating scheme previously described (Finley R. L. Jr. et al. (1994) PNAS, 91(26):12980-12984). Briefly, positive fish plasmids were transformed into Y187 and the panel of baits were transformed into HF7c. Transformed fish and bait cells were streaked out as stripes on selective medium plates, mated on YPAD plates, and tested for reporter gene activity.

rKv4.3 = assay: Two-electrode voltage clamp of Kv4.3 currents in Xenopus oocytes co-injected with KChIP cRNA; assay type: cell-based, rat; settings: for fold increase of inactivation time constant of Kv4.3: versus Kv4.3 alone; for effect on Kv4.3 current: co-injected with Kv4.3 cRNA
rKv4.3, sequence (Q62897 1-487 limits assumed): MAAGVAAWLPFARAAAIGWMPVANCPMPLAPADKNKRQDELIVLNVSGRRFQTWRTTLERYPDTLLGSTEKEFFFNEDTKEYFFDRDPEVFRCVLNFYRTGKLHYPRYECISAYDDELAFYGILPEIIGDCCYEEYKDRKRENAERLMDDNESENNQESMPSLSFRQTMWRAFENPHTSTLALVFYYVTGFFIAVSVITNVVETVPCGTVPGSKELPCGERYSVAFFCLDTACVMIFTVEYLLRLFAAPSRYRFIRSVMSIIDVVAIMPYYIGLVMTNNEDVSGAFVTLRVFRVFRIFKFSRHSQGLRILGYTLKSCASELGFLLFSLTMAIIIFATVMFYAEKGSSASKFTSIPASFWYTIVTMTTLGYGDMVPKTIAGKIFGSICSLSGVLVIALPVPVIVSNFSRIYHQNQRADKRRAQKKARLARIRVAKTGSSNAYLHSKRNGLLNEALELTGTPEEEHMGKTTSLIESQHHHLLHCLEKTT
Procedure: Frogs underwent no more than two surgeries and surgeries were performed by well established techniques. Frogs were anesthetized with ice. Total cRNA (1-10 ng) was injected into stage IV Xenopus oocytes that were harvested the previous day. The Xenopus oocytes were incubated in ND96 containing (in mM) 96 NaCl, 2 KCl, 1.8 CaCl2, 1 MgCl2, 5 HEPES, pH 7.6, plus (Gentamycin 50 μg/ml) at 18° C. Xenopus oocytes were studied 3-7 days after injection. The two-electrode voltage-clamp recordings were performed in ND96 solution using a TURBO TEC 03 Clamp Amplifier (ALA Scientific Instruments, Westbury, N.Y.). Both electrodes were filled with 3 M KCl and had electrode resistances ranging from 0.2-1 MOhm. The current signals were filtered at 1000 Hz before transferred on a PC (Gateway, Calif.) using the PULSE software (HEKA, Germany).
To investigate whether the modulatory effects of these KChIPs are specific for Kv4 channels, KChIP1 was coexpressed with Kv1.4 and Kv2.1 in Xenopus oocytes. Xenopus oocytes were injected with 1-3 ng/oocyte of cRNA which was prepared using standard in vitro transcription techniques (Sambrook et al. 1989. Molecular Cloning: a laboratory manual, Cold Spring Harbor Press). Currents in Xenopus oocytes were measured with a two-electrode voltage clamp. […] As a final control for the KChIP effects and to verify that the KChIPs' effects on Kv4 currents are independent of expression system, the above kinetic analyses were repeated after expressing Kv4.3 and KChIP mRNAs in Xenopus oocytes. The effects KChIP1 on for Kv4.3 in the Xenopus oocyte system were strikingly similar to those on Kv4.2 in CHO cells (Table 1).

[1] = Kv4.3 co-expressed with the KChIP

Row | Molecule | Inactivation time constant (ms ± SEM) (rKv4.3; [1]) | Peak amplitude (μA ± SEM) (rKv4.3; [1]) | effect on Kv4.3 current (rKv4.3) | also measured
1 | 8t: 8t polypeptide, splice variant of 9q (protein) MNRCPRRCRSPLGQAARSLYQLVTGSLSPDSVDDEFELSTVCHRPEGLEQLQEQTKFTRKELQVLYRGFKNECPSGIVNEENFKQIYSQFFPQGDSSTYATFLFNAFDTNHDGSVSFEDFVAGLSVILRGTVDDRLNWAFNLYDLNKDGCITKEEMLDIMKSIYDMMGKYTYPALREEAPREHVESFFQKMDRNKDGVVTIEEFIESCQKDENIMRSMQLFDNVI | – | – | – | binding to rKv4.3N in yeast two-hybrid assay (rKv4.3N): able to bind to the Kv4.3 polypeptide
2 | KChIP2s: KChIP2 splice variant, human KChIP2s (protein) MRGQGRKESLSDSRDLDGSYDQLTDSVDDEFELSTVCHRPEGLEQLQEQTKFTRKELQVLYRGFKNECPSGIVNEENFKQIYSQFFPQGDSSTYATFLFNAFDTNHDGSVSFEDFVAGLSVILRGTVDDRLNWAFNLYDLNKDGCITKEEMLDIMKSIYDMMGKYTYPALREEAPREHVESFFQKMDRNKDGVVTIEEFIESCQKDENIMRSMQLFDNVI | 90 ± 3 ms | 44 ± 3 μA | – | –
3 | KChIP4N2: N-terminal splice variant of KChIP4 (protein) MNLEGLEMIAVLIVIVLFVKLLEQFGLIEAGLEDSVEDELEMATVRHRPEALELLEAQSKFTKKELQILYRGFKNECPSGVVNEETFKEIYSQFFPQGDSTTYAHFLFNAFDTDHNGAVSFEDFIKGLSILLRGTVQEKLNWAFNLYDINKDGYITKEEMLDIMKAIYDMMGKCTYPVLKEDAPRQHVETFFQKMDKNKDGVVTIDEFIESCQKDENIMRSMQLFENVI | – | – | – | Peak amplitude (μA ± SEM) (rKv4.3; KChIP4N2 cRNA 1× (stock)): 0 ± 0 μA; Peak amplitude (μA ± SEM) (rKv4.3; KChIP4N2 cRNA diluted 5×): 4 ± 1 μA; Inactivation time constant (ms ± SEM) (rKv4.3; KChIP4N2 cRNA diluted 30×): 681 ± 28 ms; Peak amplitude (μA ± SEM) (rKv4.3; KChIP4N2 cRNA diluted 30×): 25 ± 2 μA; Inactivation time constant (ms ± SEM) (rKv4.3; KChIP4N2 cRNA diluted 120×): 193 ± 13 ms; Peak amplitude (μA ± SEM) (rKv4.3; KChIP4N2 cRNA diluted 120×): 16 ± 3 μA; Inactivation time constant (ms ± SEM) (rKv4.3; KChIP4N2 cRNA diluted 500×): 84 ± 5 ms; Peak amplitude (μA ± SEM) (rKv4.3; KChIP4N2 cRNA diluted 500×): 9 ± 4 μA; effect on inactivation kinetics of Kv4.3 (rKv4.3; high concentrations of KChIP4N2 (e.g. 5× dilution of stock)): converted the fast-inactivating Kv4.3 current into an almost non-inactivating current
4 | KChIP1l: KChIP1long splice variant of KChIP1 (protein) MGAVMGTFSSLQTKQRRPSKDIAWWYYQYQRDKIEDELEMTMVCHRPEGLEQLEAQTNFTKRELQVLYRGFKNECPSGVVNEDTFKQIYAQFFPHGDASTYAHYLFNAFDTTQTGSVKFEDFVTALSILLRGTVHEKLRWTFNLYDINKDGYINKEEMMDIVKAIYDMMGKYTYPVLKEDTPRQHVDVFFQKMDKNKDGIVTLDEFLESCQEDDNIMRSLQLFQNVM | 100 ± 8 ms | 55±7 μA | – | fold increase of inactivation time constant of Kv4.3 (rKv4.3): ~2 fold
5 | KChIP4N1: KChIP4 splice variant KChIP4a (protein) MLTLEWESEGLQTVGIVVIICASLKLLHLLGLIDFSEDSVEDELEMATVRHRPEALELLEAQSKFTKKELQILYRGFKNECPSGVVNEETFKEIYSQFFPQGDSTTYAHFLFNAFDTDHNGAVSFEDFIKGLSILLRGTVQEKLNWAFNLYDINKDGYITKEEMLDIMKAIYDMMGKCTYPVLKEDAPRQHVETFFQKMDKNKDGVVTIDEFIESCQKDENIMRSMQLFENVI | 112 ± 7 ms | 6 ± 1 μA | statistically had no significant (ns) effect on Kv4.3 amplitude | –
6 | KChIP2m: KChIP2 splice variant m (protein) MRGQGRKESLSESRDLDGSYDQLTGHPPGPSKKALKQRFLKLLPCCGPQALPSVSENSVEDEFELSTVCHRPEGLEQLQEQTKFTRRELQVLYRGFKNECPSGIVNEENFKQIYSQFFPQGDSSNYATFLFNAFDTNHDGSVSFEDFVAGLSVILRGTIDDRLSWAFNLYDLNKDGCITKEEMLDIMKSIYDMMGKYTYPALREEAPREHVESFFQKMDRNKDGVVTIEEFIESCQQDENIMRSMQLFDNVI | 70 ± 2 ms | 40 ± 4 μA | – | binding to rKv4.3N in yeast two-hybrid assay (rKv4.3N): able to bind to the Kv4.3 polypeptide
7 | KChIP2C: KChIP2 splice variant, rat KChIP2C (protein) MRGQGRKESLSESRDLDGSYDQLTGHPPGPSKKALKQRFLKLLPCCGPQALPSVSENSVEDEFELSTVCHRPEGLEQLQEQTKFTRRELQVLYRGFKNECPSGIVNEENFKQIYSQFFPQGDSSNYATFLFNAFDTNHDGSVSFEDFVAGLSVILRGTIDDRLSWAFNLYDLNKDGCITKEEMLDIMKSIYDMMGKYTYPALREEAPREHVESFFQKMDRNKDGVVTIEEFIESCQQDENIMRSMQLSPLLN | 74 ± 4 ms | 44 ± 5 μA | – | –
8 | KChIP2l: KChIP2 splice variant, rat KChIP2l (protein) MRGQGRKESLSESRDLDGSYDQLTGHPPGPSKKALKQRFLKLLPCCGPQALPSVSETLAAPASLRPHRPRPLDPDSVEDEFELSTVCHRPEGLEQLQEQTKFTRRELQVLYRGFKNECPSGIVNEENFKQIYSQFFPQGDSSNYATFLFNAFDTNHDGSVSFEDFVAGLSVILRGTIDDRLSWAFNLYDLNKDGCITKEEMLDIMKSIYDMMGKYTYPALREEAPREHVESFFQKMDRNKDGVVTIEEFIESCQQDENIMRSMQLFDNVI | 87 ± 4 ms | 51 ± 4 μA | – | –
9 | KChIP1N: N-terminal splice variant of KChIP1 (protein) MWAEGESEGLQTLGIVVVVCSSLKLLHYLGLIDLSDDKIEDELEMTMVCHRPEGLEQLEAQTNFTKRELQVLYRGFKNECPSGVVNEDTFKQIYAQFFPHGDASTYAHYLFNAFDTTQTGSVKFEDFVTALSILLRGTVHEKLRWTFNLYDINKDGYINKEEMMDIVKAIYDMMGKYTYPVLKEDTPRQHVDVFFQKMDKNKDGIVTLDEFLESCQEDDNIMRSLQLFQNVM | 1778 ± 136 ms | 18±3 μA | did not affect peak amplitude of Kv4.3 | fold increase of inactivation time constant of Kv4.3 (rKv4.3): 32 fold
10 | KChIP4N3: KChIP4 splice variant KChIP4d (protein) MNVRRVESISAQLEEASSTGGFLYAQNSTKRSIKERLMKLLPCSAAKTSSPAIQNSVEDELEMATVRHRPEALELLEAQSKFTKKELQILYRGFKNECPSGVVNEETFKEIYSQFFPQGDSTTYAHFLFNAFDTDHNGAVSFEDFIKGLSILLRGTVQEKLNWAFNLYDINKDGYITKEEMLDIMKAIYDMMGKCTYPVLKEDAPRQHVETFFQKMDKNKDGVVTIDEFIESCQKDENIMRSMQLFENVI | 85 ± 4 ms | 43 ± 4 μA | increased the peak amplitude of Kv4.3 | –
